Test system: engineered chimeric receptor SEQ ID NO: 33 and its mutants (human α7-nAChR ligand binding domain / human GlyRα1 ion pore domain) in Lenti-X 293T cells
Test: YFP fluorescence quenching anion reporter plate reader assay (percent quench, EC50)
Type: cell-based
Conditions: for YFP fluorescence quenching using CNL001 (percent quench): receptor named in row; for YFP fluorescence quenching using Varenicline, 3 nM var: ligand Varenicline 3 nM; for YFP fluorescence quenching using Varenicline, 30 nM var: ligand Varenicline 30 nM; for YFP fluorescence quenching using Varenicline, 300 nM var: ligand Varenicline 300 nM; for YFP fluorescence quenching using Varenicline, 500 nM var: ligand Varenicline 500 nM; for YFP fluorescence quenching using Varenicline, 1 uM var: ligand Varenicline 1 uM
Method in brief: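 Lenti-X 293T cells co-expressing an anion-quenchable YFP were transiently transfected with receptor DNA, then ligand was added in NaI-substituted buffer (pH 7.2) after 30 min at 37 °C. Fluorescence was read about 2 min; percent quench = mean of last 10 s over 15 s pre-ligand baseline.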

B1: CODA71: parental chimeric LGIC: human α7-nAChR ligand binding domain with GlyRα1 Cys-loop fused to human GlyRα1 ion pore domain (protein)
chain: MRCSPGGVWLALAASLLHVSLQGEFQRKLYKELVKNYNPLERPVANDSQPLTVYFSLSLLQIMDVDEKNQVLTTNIWLQMSWTDHYLQWNVSEYPGVKTVRFPDGQIWKPDILLYNSADERFDATFHTNVLVNSSGHCQYLPPGIFKSSCPMDLKNFPMDVQTCKLKFGSWSYGGWSLDLQMQEADISGYIPNGEWDLVGIPGKRSERFYECCKEPYPDVTFTVTMRRRMGYYLIQMYIPSLLIVILSWISFWINMDAAPARVGLGITTVLTMTTQSSGSRASLPKVSYVKAIDIWMAVCLLFVFSALLEYAAVNFVSRQHKELLRFRRKRRHHKSPMLNLFQEDEAGEGRFNFSAYGMGPACLQAKDGISVKGANNSNTTNPPPAPSKSPEEMRKLFIQRAKKIDKISRIGFPMAFLIFNMFYWIIYKIVRREDVHNQ
modifications: synthetic sequence of chimeric LGIC
In the case of B1, the “YFP fluorescence quenching using CNL001 (percent quench)” value (1 nM CNL001, first column so headed) is reported as 3.727%, the “YFP fluorescence quenching using CNL001 (percent quench)” value (1 nM CNL001, second column so headed) is reported as 20.231% and the “YFP fluorescence quenching using TC-5619/Bradanicline (percent quench)” value (1 nM brd (TC-5619/Bradanicline)) is reported as 9.41%. For the same molecule, the “YFP fluorescence quenching using TC-5619/Bradanicline (percent quench)” value (3 nM brd (TC-5619/Bradanicline)) was 44.38%, the “YFP fluorescence quenching using CNL001 (percent quench)” value (10 nM CNL001, first column so headed) was 81.096% and the “YFP fluorescence quenching using CNL001 (percent quench)” value (10 nM CNL001, second column so headed) was 82.368%. For the same molecule, the “YFP fluorescence quenching using TC-5619/Bradanicline (percent quench)” value (10 nM brd (TC-5619/Bradanicline)) was 76.61%, the “YFP fluorescence quenching using TC-6683 (percent quench)” value (30 nM TC-6683) was −14.43% and the “YFP fluorescence quenching using TC-5619/Bradanicline (percent quench)” value (30 nM brd (TC-5619/Bradanicline)) was 70.23%. The “YFP fluorescence quenching using CNL001 (percent quench)” value (50 nM CNL001, first column so headed) was 83.62%, the “YFP fluorescence quenching using CNL001 (percent quench)” value (50 nM CNL001, second column so headed) was 84.482% and the “YFP fluorescence quenching using ABT-126 (percent quench)” value (50 nM abt (ABT-126)) was −1.98%. For the same molecule, the “YFP fluorescence quenching using CNL001 (percent quench)” value (100 nM CNL001, first column so headed) was 84.297%, the “YFP fluorescence quenching using CNL001 (percent quench)” value (100 nM CNL001, second column so headed) was 85.368% and the “YFP fluorescence quenching (percent quench)” value (100 nM CNL002) was 49.61%. The “YFP fluorescence quenching using ABT-126 (percent quench)” value (100 nM abt (ABT-126)) was 24.27%, the “YFP fluorescence quenching using AZD-0328 (percent quench)” value (100 nM azd0328) was 73.59% and the “YFP fluorescence quenching using TC-5619/Bradanicline (percent quench)” value (100 nM brd (TC-5619/Bradanicline)) was 78.62%. The “YFP fluorescence quenching using TC-6683 (percent quench)” value (300 nM TC-6683) was −13.08%, the “YFP fluorescence quenching using ABT-126 (percent quench)” value (300 nM abt (ABT-126)) was 56.8% and the “YFP fluorescence quenching using AZD-0328 (percent quench)” value (300 nM azd0328) was 78.09%. For the same molecule, the “YFP fluorescence quenching using TC-5619/Bradanicline (percent quench)” value (300 nM brd (TC-5619/Bradanicline)) was 75.51%, the “YFP fluorescence quenching using ABT-126 (percent quench)” value (500 nM abt (ABT-126)) was 76.28% and the “YFP fluorescence quenching using CNL001 (percent quench)” value (1 uM CNL001, first column so headed) was 85.647%. The “YFP fluorescence quenching using CNL001 (percent quench)” value (1 uM CNL001, second column so headed) was 86.358%, the “YFP fluorescence quenching (percent quench)” value (1 uM CNL002) was 74.15% and the “YFP fluorescence quenching using ABT-126 (percent quench)” value (1 uM abt (ABT-126)) was 73.16%. For the same molecule, the “YFP fluorescence quenching using TC-6683 (percent quench)” value (3 uM TC-6683) was −13.71%, the “YFP fluorescence quenching using ABT-126 (percent quench)” value (3 uM abt (ABT-126)) was 70.98% and the “YFP fluorescence quenching using ABT-126 (percent quench)” value (10 uM abt (ABT-126)) was 72.62%. The “YFP fluorescence quenching (percent quench)” value (10 uM ach (acetylcholine)) was 15.61%, the “YFP fluorescence quenching (percent quench)” value (30 uM CNL002) was 75.21% and the “YFP fluorescence quenching using TC-6683 (percent quench)” value (30 uM TC-6683) was −14.02%. For the same molecule, the “YFP fluorescence quenching using ABT-126 (percent quench)” value (30 uM abt (ABT-126)) was 77.49%, the “YFP fluorescence quenching (percent quench)” value (30 uM ach (acetylcholine)) was 63.31% and the “YFP fluorescence quenching using AZD-0328 (percent quench)” value (30 uM azd0328) was 79.05%. The “YFP fluorescence quenching using ABT-126 (percent quench)” value (50 uM abt (ABT-126)) was 77.96%, the “YFP fluorescence quenching (percent quench)” value (50 uM ach (acetylcholine)) was 73.16% and the “YFP fluorescence quenching using TC-6683 (percent quench)” value (100 uM TC-6683) was −8.77%. The “YFP fluorescence quenching using ABT-126 (percent quench)” value (100 uM abt (ABT-126)) was 77.81%, the “YFP fluorescence quenching (percent quench)” value (100 uM ach (acetylcholine)) was 74.94% and the “YFP fluorescence quenching (percent quench)” value (300 uM ach (acetylcholine)) was 65.94%. The “YFP fluorescence quenching (percent quench)” value (500 uM ach (acetylcholine)) was 62.78%, the “YFP fluorescence quenching (percent quench)” value (1 mM ach (acetylcholine)) was 74.24% and the “YFP fluorescence quenching (percent quench)” value (3 mM ach (acetylcholine)) was 76.27%. For the same molecule, the “YFP fluorescence quenching (percent quench)” value (5 mM ach (acetylcholine)) was 77.15%, the “YFP fluorescence quenching (percent quench)” value (10 mM ach (acetylcholine)) was 77.96% and the “YFP fluorescence quenching using Facinicline, 30 nM fac” value (ligand Facinicline 30 nM) was 53.42. For the same molecule, the “YFP fluorescence quenching using Facinicline, 100 nM fac” value (ligand Facinicline 100 nM) was 83.6, the “YFP fluorescence quenching using Facinicline, 300 nM fac” value (ligand Facinicline 300 nM) was 77.44 and the “YFP fluorescence quenching using Facinicline, 30 uM fac” value (ligand Facinicline 30 uM) was 79.62. For the same molecule, the “YFP fluorescence quenching using TC-6987, 1 uM tc6987” value (ligand TC-6987 1 uM) was 31.56, the “YFP fluorescence quenching using TC-6987, 3 uM tc6987” value (ligand TC-6987 3 uM) was 31.82 and the “YFP fluorescence quenching using TC-6987, 5 uM tc6987” value (ligand TC-6987 5 uM) was 30.75. The “YFP fluorescence quenching using TC-6987, 10 uM tc6987” value (ligand TC-6987 10 uM) was 56.68, the “YFP fluorescence quenching using TC-6987, 30 uM tc6987” value (ligand TC-6987 30 uM) was 51.46 and the “YFP fluorescence quenching using TC-6987, 50 uM tc6987” value (ligand TC-6987 50 uM) was 61.26. The “YFP fluorescence quenching using TC-6987, 100 uM tc6987” value (ligand TC-6987 100 uM) was 43.21, the “YFP fluorescence quenching using TC-6987, 300 uM tc6987” value (ligand TC-6987 300 uM) was 7.79 and the “YFP fluorescence quenching using TC-6987, 500 uM tc6987” value (ligand TC-6987 500 uM) was 51.58. For the same molecule, the “YFP fluorescence quenching using Varenicline, 3 nM var” value (first column) was −2.36, the “YFP fluorescence quenching using Varenicline, 3 nM var” value (second column) was −3.522 and the “YFP fluorescence quenching using Varenicline, 30 nM var” value (first column) was −4.255. For the same molecule, the “YFP fluorescence quenching using Varenicline, 30 nM var” value (second column) was −3.636, the “YFP fluorescence quenching using Varenicline, 300 nM var” value (first column) was 46.195 and the “YFP fluorescence quenching using Varenicline, 300 nM var” value (second column) was 45.522. The “YFP fluorescence quenching using Varenicline, 500 nM var” value (first column) was 69.253, the “YFP fluorescence quenching using Varenicline, 500 nM var” value (second column) was 71.705 and the “YFP fluorescence quenching using Varenicline, 1 uM var” value (first column) was 79.254. The “YFP fluorescence quenching using Varenicline, 1 uM var” value (second column) was 79.244.
